Measured values from PMC7772352.

Biological target: Tva-HA-Fc

Which percentage of GFP fluorescence signal in DF-1 cells transfected with RCASBPGDFX0602 G196A-EGFP (recombinant virus; wild type 89.65%) does the source give for “soluble gp85-flag G196A (natural protein)” here?
Its percentage of GFP fluorescence signal in DF-1 cells transfected with RCASBPGDFX0602 G196A-EGFP (recombinant virus; wild type 89.65%) is 0.24%.

For “soluble gp85-flag R198H (natural protein)”, which percentage of GFP fluorescence signal in DF-1 cells transfected with RCASBP GDFX0602 R198H-EGFP (recombinant virus; wild type 89.65%) is on record?
Its percentage of GFP fluorescence signal in DF-1 cells transfected with RCASBP GDFX0602 R198H-EGFP (recombinant virus; wild type 89.65%) is 0.49%.
